Measured values: US20170260258A1

Legend:
[1] = biological target: KR127 antibody (murine monoclonal antibody)
[2] = biological target: humanized antibody HzKR127-3.1
[3] = biological target: humanized antibody HzKR127-3.2
[4] = biological target: humanized antibody HzKR127-3
humanized antibody HzKR127-3, sequence (VH, as listed by the source limits assumed, chain 1 of 2): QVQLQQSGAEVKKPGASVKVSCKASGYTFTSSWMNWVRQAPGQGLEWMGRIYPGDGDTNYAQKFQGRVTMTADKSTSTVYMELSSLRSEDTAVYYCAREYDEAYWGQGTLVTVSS
humanized antibody HzKR127-3, sequence (VL, as listed by the source limits assumed, chain 2 of 2): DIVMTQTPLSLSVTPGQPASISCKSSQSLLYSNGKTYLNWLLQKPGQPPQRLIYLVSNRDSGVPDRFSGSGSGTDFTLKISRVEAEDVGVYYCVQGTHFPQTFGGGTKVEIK

GST-pre-S1 (1st to 56th amino acids) protein, sequence (P08515 whole entry): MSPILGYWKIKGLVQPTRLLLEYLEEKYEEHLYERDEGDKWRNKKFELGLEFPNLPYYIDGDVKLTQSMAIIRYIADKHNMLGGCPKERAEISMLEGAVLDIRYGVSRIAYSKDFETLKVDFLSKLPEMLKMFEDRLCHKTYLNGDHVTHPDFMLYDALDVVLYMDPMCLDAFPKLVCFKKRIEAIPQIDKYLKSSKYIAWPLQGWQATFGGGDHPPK
KR127 antibody (murine monoclonal antibody), sequence (VH, as listed by the source, chain 1 of 2): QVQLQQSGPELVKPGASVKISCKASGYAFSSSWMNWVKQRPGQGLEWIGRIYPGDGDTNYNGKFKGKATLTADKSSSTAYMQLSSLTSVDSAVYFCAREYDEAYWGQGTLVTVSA
KR127 antibody (murine monoclonal antibody), sequence (VL, as listed by the source, chain 2 of 2): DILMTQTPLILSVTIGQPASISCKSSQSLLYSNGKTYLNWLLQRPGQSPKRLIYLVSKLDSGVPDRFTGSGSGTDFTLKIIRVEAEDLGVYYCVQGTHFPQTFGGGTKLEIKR
humanized antibody HzKR127-3.1, sequence (VH, as listed by the source, chain 1 of 2): as the sequence (VH, as listed by the source limits assumed, chain 1 of 2) above, with D101A counted along it
humanized antibody HzKR127-3.1, sequence (VL, as listed by the source, chain 2 of 2): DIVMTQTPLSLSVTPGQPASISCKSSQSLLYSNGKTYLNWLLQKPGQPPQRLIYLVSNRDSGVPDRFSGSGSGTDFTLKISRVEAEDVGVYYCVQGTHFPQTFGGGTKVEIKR
humanized antibody HzKR127-3.2, sequence (VH, as listed by the source, chain 1 of 2): as the sequence (VH, as listed by the source limits assumed, chain 1 of 2) above, with N59S, D101A counted along it

## GST-pre-S1 (1st to 56th amino acids) protein (from UniProt P08515 1-218)
[1]
  IC50 (read off the curve): 20 nM
[2]
  IC50 (read off the curve): 6 nM
[3]
  IC50 (read off the curve): 2 nM
[4]
  IC50 (read off the curve): 30 nM
